Measurements: the supplement of paper PMC7125110
± gives the standard error. For part of these data: Fewer inactive variants are shown than the library holds.

B1: glmS ribozyme (parent)
chain: AUAAAAGCGCCAGAACUACAGAAAUGUAGUUGACGAGGAGGAGGUUUAUCGAAUUUUCGGCGGAUGCCUCCAAA

What was measured:
Details in all cases: with glucosamine-6-phosphate
glucosamine-6-phosphate [1] = variants of: B1; assay: kcat; higher = faster cleavage; RNA array
Procedure, shortened: (§1)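 Glucosamine-6-phosphate, from 40 μM to 10 mM in HEPES/KCl/Mg(OAc)2 buffer, was flowed over sequenced MiSeq chips carrying barcoded ribozyme variants transcribed in situ by E. coli RNA polymerase. A hybridised Cy3 probe tracked the variants at 37 °C as tiles were imaged over ~14 h. kobs, kcat and KM were obtained by fitting normalised per-tile medians to exponential decays and then applying weighted Michaelis–Menten fits across concentrations.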

glucosamine-6-phosphate [2] = variants of: B1; assay: KM; higher = weaker cofactor use; RNA array
Procedure, shortened: as §1

glucosamine-6-phosphate [3] = variants of: B1; assay: self-cleavage kobs at 40 uM GlcN6P; higher = faster cleavage; RNA array
Procedure, shortened: as §1

glucosamine-6-phosphate [4] = variants of: B1; assay: self-cleavage kobs at 640 uM GlcN6P; higher = faster cleavage; RNA array
Procedure, shortened: as §1

glucosamine-6-phosphate [5] = variants of: B1; assay: self-cleavage kobs at 2500 uM GlcN6P; higher = faster cleavage; RNA array
Procedure, shortened: as §1

glucosamine-6-phosphate [6] = variants of: B1; assay: self-cleavage kobs at 10000 uM GlcN6P; higher = faster cleavage; RNA array
Procedure, shortened: as §1

glucosamine-6-phosphate [7] = variants of: B1; assay: self-cleavage kobs at 160 uM GlcN6P; higher = faster cleavage; RNA array
Procedure, shortened: as §1

Variant	kcat (glucosamine-6-phosphate [1]) [s⁻¹]	KM (glucosamine-6-phosphate [2]) [µM]	self-cleavage kobs at 40 uM GlcN6P (glucosamine-6-phosphate [3]) [s⁻¹]	self-cleavage kobs at 640 uM GlcN6P (glucosamine-6-phosphate [4]) [s⁻¹]	self-cleavage kobs at 2500 uM GlcN6P (glucosamine-6-phosphate [5]) [s⁻¹]	self-cleavage kobs at 10000 uM GlcN6P (glucosamine-6-phosphate [6]) [s⁻¹]	self-cleavage kobs at 160 uM GlcN6P (glucosamine-6-phosphate [7]) [s⁻¹]
A52U A53U	0.000212 ± 8.7e-06	4210 ± 360	< 1e-05	2.65e-05 ± 1e-05	8.03e-05 ± 1.2e-05	0.000148 ± 1.7e-05	
U55G U69C	0.000334 ± 4.6e-05		0.000197 ± 4.3e-05	0.000303 ± 6.9e-05	0.000289 ± 6.4e-05	0.000457 ± 8e-05	0.000229 ± 6.1e-05
G44C C50A		105 ± 18					
G59A C71U	6.15e-05 ± 1.4e-06	1210 ± 130	< 1e-05		4.05e-05 ± 7.8e-06	5.51e-05 ± 6.9e-06	
U30C C67G C68A	1.14e-05 ± 4e-06		< 1e-05			< 1e-05	
U49G U69A	4.14e-05 ± 1.7e-05				8.22e-05 ± 2.2e-05		
G35C C58A			< 1e-05	< 1e-05		< 1e-05	
A6U C34A			< 1e-05	< 1e-05	< 1e-05	< 1e-05	< 1e-05
G41C U54G	0.000435 ± 5.6e-05	1610 ± 450		0.000123 ± 2.4e-05	0.000354 ± 8.9e-05	0.000363 ± 4.8e-05	
A6C A52U U54A U55C			< 1e-05	< 1e-05		< 1e-05	
A42C U56G		4130 ± 120					
G40A C71U	0.0789 ± 0.028	3660 ± 1500	0.000981 ± 7.3e-05	0.0113 ± 0.0013	0.0322 ± 0.009	0.0591 ± 0.0079	0.00194 ± 0.00048
U31C A42G	0.00894 ± 0.0011	2260 ± 400	0.000166 ± 2.9e-05	0.00212 ± 0.00035	0.00407 ± 0.0011	0.00754 ± 0.0012	0.000469 ± 0.00016
G32U C70G	7.04e-05 ± 1e-05			8.68e-05 ± 1.2e-05	5.3e-05 ± 5.7e-06	7.56e-05 ± 4.5e-06	
A39C U57C	1.89e-05 ± 2.4e-06				1.97e-05 ± 9.4e-06		
A36C C61U		44.5 ± 18					
G32C U45C C58G G59U			< 1e-05				
C11G C58U			< 1e-05			< 1e-05	< 1e-05
G37A C50G C70G			4.31e-05 ± 2.1e-05				

Variant	kcat (glucosamine-6-phosphate [1]) [s⁻¹]	KM (glucosamine-6-phosphate [2]) [µM]	self-cleavage kobs at 40 uM GlcN6P (glucosamine-6-phosphate [3]) [s⁻¹]	self-cleavage kobs at 640 uM GlcN6P (glucosamine-6-phosphate [4]) [s⁻¹]	self-cleavage kobs at 2500 uM GlcN6P (glucosamine-6-phosphate [5]) [s⁻¹]	self-cleavage kobs at 10000 uM GlcN6P (glucosamine-6-phosphate [6]) [s⁻¹]	self-cleavage kobs at 160 uM GlcN6P (glucosamine-6-phosphate [7]) [s⁻¹]
A64G C71G	0.000386 ± 8.2e-05			0.000495 ± 0.00013	0.000271 ± 2.9e-05	0.000398 ± 5.8e-05	6.24e-05 ± 2e-05
A39G U55G		212 ± 100	0.0012 ± 0.00016	0.00499 ± 0.00097	0.00613 ± 0.0016	0.0177 ± 0.0048	0.00211 ± 0.0006
U30C U56A	0.000339 ± 6.9e-06	2910 ± 110		6.11e-05 ± 6.9e-06	0.000155 ± 1.6e-05	0.000263 ± 2.4e-05	
G13U C68A C70G	2.66e-05 ± 2.1e-06	139 ± 65	< 1e-05			< 1e-05	
C58A G66A	0.000322 ± 5.8e-05	4640 ± 1500		4.87e-05 ± 1e-05	9.9e-05 ± 1.6e-05	0.000228 ± 2.8e-05	
A15G C50G C68U			0.000179 ± 3.4e-05	0.000492 ± 0.00016	0.000371 ± 0.00011	0.000154 ± 3.1e-05	
U56G C71G	0.000632 ± 0.00018		6.71e-05 ± 1.8e-05	0.000271 ± 4.6e-05	0.000512 ± 0.0001	0.000942 ± 0.00021	0.00014 ± 2.1e-05
G32U A42C G51C C67U	1.49e-05 ± 6.1e-07	3620 ± 380					
A48G C70U	0.000237 ± 3.3e-05	1840 ± 620		5.39e-05 ± 1.1e-05	0.000179 ± 2.8e-05	0.000192 ± 2.1e-05	
G13C U31G A48U			< 1e-05				
A12G G13C	2.64e-05 ± 6.5e-07	2100 ± 230	< 1e-05				< 1e-05
C10U A53G	2.78e-05 ± 1.2e-06	6420 ± 600	< 1e-05			1.69e-05 ± 7.4e-06	
C68U U69G	2.33e-05 ± 5.5e-06				3.45e-05 ± 1.6e-05		
C10U C50G		51.5 ± 26	6.14e-05 ± 1e-05	0.000136 ± 1.7e-05	0.00051 ± 0.0002	0.000116 ± 3e-05	9.85e-05 ± 1.3e-05
G29C C70A	4.11e-05 ± 9.8e-06			5.19e-05 ± 9.6e-06	4.33e-05 ± 9.8e-06		2.35e-05 ± 1.1e-05
C16G U54G G60A C70A			< 1e-05	0.000647 ± 0.0003	3.79e-05 ± 1.7e-05		
G59A G60C		30.9 ± 14					
G13U A36U C50U C70U			7.67e-05 ± 2.7e-05				
U56G U65A			3.91e-05 ± 7.3e-06	0.000245 ± 6.8e-05	0.000827 ± 0.0002	0.0026 ± 0.0003	
